Values belong to the binder of their own block, whether it stands above or below them.
Tests used:
[1] = molecular target: S. cerevisiae Exo-9 core complex (recombinant, untagged) (S. cerevisiae, UniProt P46948;Q12277;P25359;Q05636;P53256;P48240;P38792;Q08285;P53859); experiment: MST
[2] = molecular target: T1, S. cerevisiae Rrp45 (subunit of the crystallised Exo-9) (S. cerevisiae, UniProt Q05636 1-305); experiment: crystal structure
T1 sequence: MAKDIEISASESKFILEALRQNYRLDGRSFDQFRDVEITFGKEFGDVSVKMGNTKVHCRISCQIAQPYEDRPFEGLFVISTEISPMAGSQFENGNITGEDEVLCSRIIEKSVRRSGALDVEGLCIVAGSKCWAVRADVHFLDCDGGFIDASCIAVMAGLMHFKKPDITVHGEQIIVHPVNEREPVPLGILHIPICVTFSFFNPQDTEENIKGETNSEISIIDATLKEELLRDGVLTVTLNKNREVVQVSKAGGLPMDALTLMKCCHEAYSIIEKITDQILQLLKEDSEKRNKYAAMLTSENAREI

Kd [1]: ~82 nM
B1: Mpp6^FL S184C labeled with red-maleimide (natural protein)
chain: MSANNGVTGKLSSRVMNMKFMKFGKTDDEESSNSNTPSNINSDVEPIEQKGKLFGLDDSAWDLNSYKDDLKKISGKEKKKVKRVVYKKRPNLIISNVGYSELRKPEGVISGRKTFGDNSDDSGSRKRKFDEGEQNEDEKRDAKDKEFTGSQDDGEDEYDLDKLFKDSIKKKKTNHNGKNKNRNCKK
modifications: cysteine-reactive fluorophore (red-maleimide) on the introduced cysteine 184

binding result [2]: binds
B2: S. cerevisiae Rrp40 (subunit of the crystallised Exo-9) (natural protein)
chain: MSTFIFPGDSFPVDPTTPVKLGPGIYCDPNTQEIRPVNTGVLHVSAKGKSGVQTAYIDYSSKRYIPSVNDFVIGVIIGTFSDSYKVSLQNFSSSVSLSYMAFPNASKKNRPTLQVGDLVYARVCTAEKELEAEIECFDSTTGRDAGFGILEDGMIIDVNLNFARQLLFNNDFPLLKVLAAHTKFEVAIGLNGKIWVKCEELSNTLACYRTIMECCQKNDTAAFKDIAKRQFKEILTVKEE

From publication PMC5603729 (Cell Reports, 2017)
